Measured values taken from patent US7338932.
Values belong to the substance of their own block, whether it stands above or below them.

Columns and labels:
[1] = target: EA2 acceptor peptide (…) (rat); assay: cell-based or functional assay
[2] = test system: EA2 acceptor peptide (PTTDSTTPAPTTK)
[3] = test system: MUC7 acceptor peptide (Ac-CPPTPSATTPAPPSSSAPPETTAA)
[4] = target: MUC2 acceptor peptide (…) (human); assay: cell-based or functional assay
MUC2 acceptor peptide (…) (human), sequence (peptide, as listed by the source): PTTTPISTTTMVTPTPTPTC

purified human recombinant GalNAc-T2 (enzyme source of Examples 1-6), sequence (chain, as listed by the source): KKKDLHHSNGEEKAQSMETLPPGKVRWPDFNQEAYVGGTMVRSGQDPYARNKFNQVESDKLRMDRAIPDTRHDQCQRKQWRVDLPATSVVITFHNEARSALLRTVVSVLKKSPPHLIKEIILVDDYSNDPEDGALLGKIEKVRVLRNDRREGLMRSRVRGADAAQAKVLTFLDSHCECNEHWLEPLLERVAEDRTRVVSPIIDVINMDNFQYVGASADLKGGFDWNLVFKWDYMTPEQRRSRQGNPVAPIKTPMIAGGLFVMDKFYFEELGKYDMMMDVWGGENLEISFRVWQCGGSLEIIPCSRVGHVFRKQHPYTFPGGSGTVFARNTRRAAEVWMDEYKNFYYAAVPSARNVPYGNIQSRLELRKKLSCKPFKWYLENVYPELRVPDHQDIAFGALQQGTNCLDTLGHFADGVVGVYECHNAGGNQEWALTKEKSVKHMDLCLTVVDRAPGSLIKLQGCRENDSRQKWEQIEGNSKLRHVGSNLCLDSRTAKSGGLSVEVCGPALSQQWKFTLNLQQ

galactosyltransferase activity with UDP-Gal donor substrate, no inhibitor [1]: 6.3 nmol/min/mL
Substance: human recombinant GalNAc-T3 (enzyme source of Example 6) (from UniProt Q14435 52-633)

Substance: purified human recombinant GalNAc-T2 (enzyme source of Examples 1-6)
GalNAc-T2 activity with UDP-Gal [2]: EA2, 1.5 nmol/min/ml | GalNAc-T2 activity with UDP-Gal [3]: Muc7, 13 nmol/min/ml

galactosyltransferase activity with UDP-Gal donor substrate, no inhibitor [4]: 90 nmol/min/mL
Substance: purified human recombinant GalNAc-T2 (enzyme source of Examples 1-6) (from UniProt Q10471 52-571)
